# Assay results published in patent US20230051580A1 (HUDSON INSTITUTE OF MEDICAL RESEARCH, published 2023).
# B1: anti-CXCL10 monoclonal antibody mAb-RA2 (antibody, V domains shown)
# VH: QVQLQQPGAELVRPGASVKLSCKASGYTFTSHWMIWVKQRPGQGLEWIGMIDPSDSATHYNQMFKDKATLTVDKSSSTAYMQLSSLTSEDSAVYYCANTRHDESWGQGTLVTVSA
# VL: DIQMTQSPSSLSASLGGRVTITCKASQDIHKYIAWYQHKPGKGPRLLIYDTSTLQPGIPSRFTGSGSGRDYSFSISNLEPEDIATYYCLQYDDLYTFGGGTKLEIKR
# notes: It was immobilised on the chip in SPR, and used biotinylated as the detection antibody in the sandwich ELISA (ART); also called anti-CXCL10 antibody RA2
# B2: anti-CXCL10 monoclonal antibody mAb-RG2 (antibody, V domains shown)
# VH: QIQLVQSGPDLKKPGETVKISCKASGYTFTNYGMNWVKQAPGKGLKWMAWINTNSGEPTYAEEFKGRFALSLDTSASTAYLQINNLKNEDTATYFCARYTGEFFYNGSSYVSYWYFDVWGAGATVTVSS
# VL: DIVLTQSPASLAVSLGQRATISCRASKSVSSSGYSYMHWYQQKPGQPPKLLIYLASNLESGVPARFSGSGSGSDFTLNIHPVEEEDAATYYCQHSRDLPWTFGGGTKLEIKR
# notes: It was immobilised on the chip in SPR, and used biotinylated as the detection antibody in the sandwich ELISA (ART); also called anti-CXCL10 antibody RG2
# Experiments:
# Test in all cases: SPR (ProteOn XPR36), antibody immobilised, antigen applied
# [1] = target: T1, recombinant full-length (mature) human CXCL10 (human, UniProt P02778 22-98)
# T1 construct: Recombinant protein from Genscript, used for immunisation and as the assay standard; also called full-length CXCL10; IP-10
# T1 sequence: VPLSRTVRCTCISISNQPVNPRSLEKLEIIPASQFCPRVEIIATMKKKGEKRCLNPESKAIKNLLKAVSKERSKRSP
# Experimental: (§1) Two monoclonal antibodies; namely mAb-RA2 specific for full length, N-terminally intact CXCL10, and mAb-RG2 specific for both full length and truncated CXCL10, were analysed by Surface Plasmon Resonance (SPR) for binding affinity against both forms of CXCL10. Experiments were performed using a ProteOn XPR36 SPRi biosensor (BioRad), equipped with a GLC chip. The chip was conditioned with 0.5% SDS, 50 mM NaOH and 100 mM HCl, and then the lanes were activated using equal parts 1-Ethyl-3-(3-dimethylaminopropyl) carbodiimide (EDAC) and N-Hydroxysuccinimide (NETS). The antibodies were immobilised in separate lanes at a concentration of 50 μg/mL in sodium acetate buffer (pH4.5), then each lane deactivated using ethanolamine. Antigens were applied to each lane, and binding was recorded as RU. All channels were regenerated using 0.85% […] between applications of antigen. Interspot and control RU were subtracted to give specific binding.
# (§2) The inventors developed a monoclonal antibody that could differentiate between the N-terminally intact, chemotactically active form of CXCL10 and all other variants. Using full-length CXCL10 protein as the antigen, hybridoma clones were isolated and screened for reactivity against (i) full-length CXCL10 protein; and (ii) short synthetic peptides, representing either the intact or truncated N-terminus of CXCL10. Antibodies secreted by clone mAb-RA2 recognized both full-length and N-terminally intact CXCL10, but not the N-terminally truncated form (Table 4). Antibodies secreted by clone mAb-RG2 reacted with all proteoforms of CXCL10 tested. […] The open reading frames encoding the variable regions of both antibodies was sequenced.
# [2] = target: T2, short peptide comprising the truncated N-terminus of human CXCL10 (NH2-LSRTVRCTCISISNQPVNPRSLE-COOH) (human)
# T2 construct: Synthesised by Mimotopes; also called VP-truncated N-term; N-terminally truncated form
# T2 peptide: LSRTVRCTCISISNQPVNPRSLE
# Experimental: as §1, §2
# [3] = target: T3, short peptide comprising the intact N-terminus of human CXCL10 (NH2-VPLSRTVRCTCISISNQPVNPRSLE-COOH) (human)
# T3 construct: Synthesised by Mimotopes; also called N-terminally intact CXCL10 peptide
# T3 peptide: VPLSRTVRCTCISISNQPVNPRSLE
# Experimental: as §1, §2
Binder,Kd [1] [nM],binding result [2],Kd [3] [nM],Kd [2] [nM]
B1,0.49,no binding,0.736,
B2,0.00389,,3.54,3
